The values that follow come from ChEMBL document CHEMBL2074573, “Is the monkey an appropriate animal model to examine drug-drug interactions involving renal clearance? Effect of probenecid on the renal elimination of H2 receptor antagonists” (J Pharmacol Exp Ther, 2005).

Substrate in data set [1]: NC(N)=Nc1nc(CSCCC(N)=NS(N)(=O)=O)cs1
Description: not read.

Substrate in data set [2]: CN/C(=N/CCSCc1nc[nH]c1C)NC#N
Description: not read.

Substrate in data set [3]: CNC(=C[N+](=O)[O-])NCCSCc1ccc(CN(C)C)o1
As to the kind of experiment: TP_TRANSPORTER: cell accumulation in hOAT3 expressing HEK cells. It is filed as functional, cell-based, HEK293.

B1: Organic anion transporter 3 (Homo sapiens) (protein)
chain: MTFSEILDRVGSMGHFQFLHVAILGLPILNMANHNLLQIFTAATPVHHCRPPHNASTGPWVLPMGPNGKPERCLRFVHPPNASLPNDTQRAMEPCLDGWVYNSTKDSIVTEWDLVCNSNKLKEMAQSIFMAGILIGGLVLGDLSDRFGRRPILTCSYLLLAASGSGAAFSPTFPIYMVFRFLCGFGISGITLSTVILNVEWVPTRMRAIMSTALGYCYTFGQFILPGLAYAIPQWRWLQLTVSIPFFVFFLSSWWTPESIRWLVLSGKSSKALKILRRVAVFNGKKEEGERLSLEELKLNLQKEISLAKAKYTASDLFRIPMLRRMTFCLSLAWFATGFAYYSLAMGVEEFGVNLYILQIIFGGVDVPAKFITILSLSYLGRHTTQAAALLLAGGAILALTFVPLDLQTVRTVLAVFGKGCLSSSFSCLFLYTSELYPTVIRQTGMGVSNLWTRVGSMVSPLVKITGEVQPFIPNIIYGITALLGGSAALFLPETLNQPLPETIEDLENWSLRAKKPKQEPEVEKASQRIPLQPHGPGLGSS
On to B1, for which the values for the Km (in the data set “not read [1]”; in the data set “not read [2]”; in data set [3]) were 124 µM, 149 µM and 234 µM, respectively.
